Earlier results on one substance are cited in publication PMC9366932.

The target of this data set is Asp309 (UniProt position 309, LIAAPDTMSVS).

Broadly, the pKa is the pH at which an ionisable group is half protonated. For “Aromatase (cytochrome P450 19A1), recombinant form referred to as aromatase WT (Homo sapiens)”, the pKa is on record as 8.2.
